Experimental data as given in patent US20190062420A1 (Janssen / Centocor, published 2019).

T1: human OX40 expressed on HEK-Blue: OX40 cells (human, UniProt P43489 29-277)
T1 construct: also called CD134
T1 sequence: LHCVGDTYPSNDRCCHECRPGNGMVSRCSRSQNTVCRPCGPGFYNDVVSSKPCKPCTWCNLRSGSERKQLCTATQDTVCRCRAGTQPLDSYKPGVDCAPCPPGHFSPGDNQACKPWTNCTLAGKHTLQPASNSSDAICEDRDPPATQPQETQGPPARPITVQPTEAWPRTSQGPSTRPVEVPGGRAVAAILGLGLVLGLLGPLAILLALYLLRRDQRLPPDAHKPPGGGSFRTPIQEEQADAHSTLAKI

T2: human FcγRIIA (NM_021642) expressed on cells (human, UniProt P12318 36-317)
T2 sequence: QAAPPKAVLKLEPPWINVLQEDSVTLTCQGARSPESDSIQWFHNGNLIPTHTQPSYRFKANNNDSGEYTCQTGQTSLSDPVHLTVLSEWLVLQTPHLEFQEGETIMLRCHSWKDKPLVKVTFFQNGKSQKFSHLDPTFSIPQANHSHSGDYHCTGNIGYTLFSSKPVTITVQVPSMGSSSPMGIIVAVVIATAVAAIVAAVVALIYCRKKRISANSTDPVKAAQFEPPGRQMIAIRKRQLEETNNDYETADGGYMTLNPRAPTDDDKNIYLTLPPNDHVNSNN

T3: FcγRIIA protein (human, UniProt P12318 36-217, biotinylated (SureLINK Biotin Kit) in the ELISA of Example 1)
T3 sequence: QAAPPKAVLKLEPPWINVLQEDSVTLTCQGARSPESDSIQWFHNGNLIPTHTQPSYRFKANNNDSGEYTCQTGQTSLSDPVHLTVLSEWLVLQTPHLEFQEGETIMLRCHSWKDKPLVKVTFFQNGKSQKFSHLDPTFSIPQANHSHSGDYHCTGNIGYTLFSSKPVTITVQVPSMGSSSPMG

T4: FcγRIIB protein (human, UniProt P31994 43-217, biotinylated (SureLINK Biotin Kit) in the ELISA of Example 1)
T4 sequence: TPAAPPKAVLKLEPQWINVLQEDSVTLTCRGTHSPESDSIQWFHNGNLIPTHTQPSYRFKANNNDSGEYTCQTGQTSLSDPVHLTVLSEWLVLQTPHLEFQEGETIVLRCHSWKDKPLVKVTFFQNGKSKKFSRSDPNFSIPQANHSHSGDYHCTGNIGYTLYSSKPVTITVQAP

T5: human FcγRIIB (NM_004001) expressed on cells (human, UniProt P31994 43-310)
T5 construct: Transiently expressed on Expi293F cells; also called Expi293F FcγRIIB; HEK293F cells expressing FcγRIIB
T5 sequence: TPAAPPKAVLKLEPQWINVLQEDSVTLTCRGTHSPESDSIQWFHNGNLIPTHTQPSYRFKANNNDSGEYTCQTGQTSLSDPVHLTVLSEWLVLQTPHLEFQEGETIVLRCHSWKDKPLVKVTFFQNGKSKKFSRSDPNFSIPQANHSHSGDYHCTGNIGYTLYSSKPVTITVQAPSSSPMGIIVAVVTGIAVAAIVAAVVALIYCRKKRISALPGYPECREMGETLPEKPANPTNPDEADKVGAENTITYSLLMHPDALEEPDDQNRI


Legend:
[1] = biological target: T6, human FcγRIIIA (NM_000569) expressed on cells (human, UniProt P08637 17-254); experiment: flow cytometry; Expi293F cells transfected with FcγRIIIA
T6 construct: Transiently expressed on Expi293F cells; also used here for FcγRIIIA on the engineered effector cells of the ADCC reporter bioassay (Promega); also called FcγIIIA
Procedure: (§1) Plasmids expressing cDNAs encoding human FcγRI (NM_000566) (SEQ ID NO: 44), FcγRIIA (NM_021642) (SEQ ID NO: 2), FcγRIIB (NM_004001) (SEQ ID NO: 3), and FcγRIIIA (NM_000569) (SEQ ID NO: 45) (Origene) were transiently transfected into Expi293F cells by ExpiFectamine293 transfection kit (Life Technologies). Flow cytometry assays were performed 48 h after transfection.
(§2) 2×10⁵ cells per well were seeded in 96-well plate and blocked in BSA Stain Buffer (BD Biosciences, San Jose, USA) for 30 min at 4° C. Cells were incubated with test mAbtyrin on ice for 1.5 h at 4° C. After being washed twice with BSA stain buffer, the cells were incubated with R-PE labeled anti-human or anti-mouse IgG secondary antibody (Jackson Immunoresearch Laboratories) for 45 min at 4° C. The cells were washed twice in stain buffer and then resuspended in 150 μL of Stain Buffer containing 1:200 diluted DRAQ7 live/dead stain (Cell Signaling Technology, Danvers, USA). PE and DRAQ7 signals of the stained cells were detected by Miltenyi MACSQuant flow cytometer (Miltenyi Biotec, Auburn, USA) using B2 and B4 channel respectively. Live cells were gated on DRAQ7 exclusion and the geometric mean fluorescence signals were determined for at least 10,000 live events collected. FlowJo software (Tree Star) was used for analysis. Data was plotted as the logarithm of antibody concentration versus mean fluorescence signals. Nonlinear regression analysis was performed by GraphPad Prism 6 (GraphPad Software, Inc.) and EC₅₀ values were calculated.

[2] = biological target: T1, human OX40 expressed on HEK-Blue: OX40 …; experiment: flow cytometry; HEK-Blue: OX40 cells
Method in brief: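 HEK-Blue Null 1 cells stably transfected with human OX40 were blocked, then incubated with mAbtyrin for 1.5 h at 4 °C. Binding was detected with a PE anti-human IgG F(ab′)₂ secondary, gating on DRAQ7-excluding live cells and taking geometric mean fluorescence. EC50 came from nonlinear regression versus log antibody concentration.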

[3] = biological target: T2, human FcγRIIA (NM_021642) expressed on …; experiment: cell-based or functional assay
[4] = biological target: T6, human FcγRIIIA (NM_000569) expressed on …; experiment: cell-based or functional assay
FcγRIIA protein = biological target: T3, FcγRIIA protein; experiment: cell-based or functional assay
FcγRIIB protein = biological target: T4, FcγRIIB protein; experiment: cell-based or functional assay
[5] = biological target: T7, human FcγRI (NM_000566) expressed on cells (human, UniProt P12314 16-374); experiment: flow cytometry; Expi293F cells transfected with FcγRI
T7 construct: Transiently expressed on Expi293F cells
Procedure: as §1, §2

[6] = biological target: T5, human FcγRIIB (NM_004001) expressed on …; experiment: flow cytometry; Expi293F cells transfected with FcγRIIB
Procedure: as §1, §2

[7] = biological target: T2, human FcγRIIA (NM_021642) expressed on …; experiment: flow cytometry; Expi293F cells transfected with FcγRIIA
Procedure: as §1, §2

[8] = biological target: T5, human FcγRIIB (NM_004001) expressed on …; experiment: flow cytometry; Raji cells (express predominantly FcγRIIB)
Procedure: as §2
Raji cell is a cell line derived from B cells that express predominantly FcγRIIB. The binding of mAbtyrins on Raji cells were investigated by flow cytometry assay described for testing mAbtyrin binding to FcγR. Binding of the mAbtyrins were detected by flow cytometry using a PE-labeled Goat F(ab′) against Human IgG(γ).

[9] = biological target: T5, human FcγRIIB (NM_004001) expressed on …; experiment: cell-based or functional assay

T7 sequence (P12314 16-374 limits assumed): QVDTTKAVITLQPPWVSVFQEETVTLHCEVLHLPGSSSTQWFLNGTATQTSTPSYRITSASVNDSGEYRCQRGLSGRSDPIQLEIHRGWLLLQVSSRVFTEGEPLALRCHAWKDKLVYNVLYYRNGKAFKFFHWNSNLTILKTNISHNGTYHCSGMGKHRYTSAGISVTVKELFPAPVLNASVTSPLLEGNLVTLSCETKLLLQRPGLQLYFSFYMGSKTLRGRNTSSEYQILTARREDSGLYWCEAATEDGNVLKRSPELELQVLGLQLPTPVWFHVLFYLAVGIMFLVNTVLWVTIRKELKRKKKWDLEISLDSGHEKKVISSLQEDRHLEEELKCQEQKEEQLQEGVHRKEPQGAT
T6 sequence (P08637 17-254 limits assumed): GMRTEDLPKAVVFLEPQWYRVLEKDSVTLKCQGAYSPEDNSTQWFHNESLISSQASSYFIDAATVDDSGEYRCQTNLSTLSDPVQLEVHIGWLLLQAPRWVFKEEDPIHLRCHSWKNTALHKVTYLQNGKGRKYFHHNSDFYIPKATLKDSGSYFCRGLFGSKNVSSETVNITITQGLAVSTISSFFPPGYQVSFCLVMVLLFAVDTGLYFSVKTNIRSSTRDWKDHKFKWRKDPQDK

Row | Binder | EC50 [1] [µg/mL] | EC50 [2] [µg/mL] | ADCP EC50 [3] [µg/mL] | ADCC (fold activation) at 1 µg/ml [4] [fold] | IFNγ production by activated CD4 T cells, plate-coated FcγRIIA (FcγRIIA protein) [pg/mL] | TNFα production by activated CD4 T cells, plate-coated FcγRIIA (FcγRIIA protein) [pg/mL] | IFNγ production by activated CD4 T cells, plate-coated FcγRIIb (FcγRIIB protein) [pg/mL] | TNFα production by activated CD4 T cells, plate-coated FcγRIIb (FcγRIIB protein) [pg/mL] | EC50 [5] [µg/mL] | EC50 [6] [µg/mL] | EC50 [7] [µg/mL] | EC50 [8] [µg/mL] | % activity at 1 µg/ml with Raji cells (HEK-Blue: OX40 NF-κB reporter) [9] [%]
1 | OX40SF2IgG1_R2BS29_LC-C (bispecific antibody, mAbtyrin: wild-type IgG1 OX40SF2 with linker and R2BS29 FN3 domain at the C-terminus of the light chain; also called mAbtyrin) heavy: not shown light: DIQMTQSPSSLSASVGDRVTITCKASQDVGAAVAWYQQKPGKAPKLLIYWASTRHTGVPSRFSGSGSGTDFTLTISSLQPEDFATYYCQQYINYPLTFGGGTKVEIKRTVAAPSVFIFPPSDEQLKSGTASVVCLLNNFYPREAKVQWKVDNALQSGNSQESVTEQDSKDSTYSLSSTLTLSKADYEKHKVYACEVTHQGLSSPVTKSFNRGECGGGGSGGGGSGGGGSGGGGSMLPAPKNLVVSRVTEDSARLSWTAPDAAFDSFPIYYWEYRVGGEAIVLTVPGSERSYDLTGLKPGTEYFVYINGVKGGEESRPLSAIFTT | 0.585 | 0.111 | 0.0151 | 9 | 125 | 33 | 177 | 37 | 0.397 | 1 | 0.066 | 3.3 | 76
2 | OX40SF2IgG2sigma_R2BS29_LC-N (bispecific antibody, mAbtyrin: R2BS29 FN3 domain and linker at the N-terminus of the light chain of OX40SF2IgG2sigma; also called mAbtyrin) heavy: QVQLVQSGAEVKKPGSSVKVSCKASGYTFKDYTMHWVRQAPGQGLEWIGGIYPNNGGSTYNQNFKDRVTLTADKSTSTAYMELSSLRSEDTAVYYCARMGYHGPHLDFDVWGQGTTVTVSSASTKGPSVFPLAPCSRSTSESTAALGCLVKDYFPEPVTVSWNSGALTSGVHTFPAVLQSSGLYSLSSVVTVPSSNFGTQTYTCNVDHKPSNTKVDKTVERKCCVECPPCPAPPAAASSVFLFPPKPKDTLMISRTPEVTCVVVDVSAEDPEVQFNWYVDGVEVHNAKTKPREEQFNSTFRVVSVLTVLHQDWLNGKEYKCKVSNKGLPSSIEKTISKTKGQPREPQVYTLPPSREEMTKNQVSLTCLVKGFYPSDIAVEWESNGQPENNYKTTPPMLDSDGSFFLYSKLTVDKSRWQQGNVFSCSVMHEALHNHYTQKSLSLSPGK light: LPAPKNLVVSRVTEDSARLSWTAPDAAFDSFPIYYWEYRVGGEAIVLTVPGSERSYDLTGLKPGTEYFVYINGVKGGEESRPLSAIFTTGGGGSGGGGSGGGGSGGGGSDIQMTQSPSSLSASVGDRVTITCKASQDVGAAVAWYQQKPGKAPKLLIYWASTRHTGVPSRFSGSGSGTDFTLTISSLQPEDFATYYCQQYINYPLTFGGGTKVEIKRTVAAPSVFIFPPSDEQLKSGTASVVCLLNNFYPREAKVQWKVDNALQSGNSQESVTEQDSKDSTYSLSSTLTLSKADYEKHKVYACEVTHQGLSSPVTKSFNRGEC | > 10 | 0.431 | 0.0089 | 1 | 103 | 29 | 72 | 29 | > 10 | 1.02 | 0.046 | 3.37 | 11
3 | OX40SF2IgG1_R2BS29_HC-C (bispecific antibody, mAbtyrin: wild-type IgG1 OX40SF2 with linker and R2BS29 FN3 domain at the C-terminus of the heavy chain; also called mAbtyrin) heavy: not shown light: DIQMTQSPSSLSASVGDRVTITCKASQDVGAAVAWYQQKPGKAPKLLIYWASTRHTGVPSRFSGSGSGTDFTLTISSLQPEDFATYYCQQYINYPLTFGGGTKVEIKRTVAAPSVFIFPPSDEQLKSGTASVVCLLNNFYPREAKVQWKVDNALQSGNSQESVTEQDSKDSTYSLSSTLTLSKADYEKHKVYACEVTHQGLSSPVTKSFNRGEC | 0.448 | 0.193 | 0.0318 | 9 | 1760 | 335 | 1370 | 250 | 0.586 | 0.968 | 0.063 | 1.27 | 90
